Source: paper PMC9700705, “A non-carboxylating pentose bisphosphate pathway in halophilic archaea” (Communications Biology, 2022)
One block for each molecule: values may come before it.

Columns and labels:
Hx-RbsK (ATP-R1PK) [1] = target: T1, Hx-RbsK (ATP-R1PK) (Halopiger xanaduensis, UniProt F8D4I6); experiment: PK/LDH-coupled NDP quantification; type: biochemical; conditions: 25 mM R1P, 20 mM MgCl2, 0.8 M NaCl, 42 °C
T1 construct: gene Halxa_1682; recombinant from E. coli Rosetta (DE3), codon-optimised synthetic gene in pET-21a(+) NdeI/BamHI, purified on anion exchange, hydroxyapatite and gel filtration

[2] = target: T2, glycolaldehyde reductase (GaR, VNG_6270G) (Halobacterium salinarum, UniProt Q9HHR2); experiment: NADH consumption at […] nm; type: biochemical; conditions: 0.2 mM NADH, 50 mM MES-NaOH pH 6.0, 3 M KCl, 40 °C; fit with substrate inhibition; substrate inhibition constant, second site
T2 construct: native protein purified from H. salinarum cell-free extract (hydroxyapatite, Superdex200), identified by LC-MS; plasmid-encoded; GenBank entry is the codon-optimised recombinant gene (Hs-GaR)
T2 sequence (Q9HHR2 1-365): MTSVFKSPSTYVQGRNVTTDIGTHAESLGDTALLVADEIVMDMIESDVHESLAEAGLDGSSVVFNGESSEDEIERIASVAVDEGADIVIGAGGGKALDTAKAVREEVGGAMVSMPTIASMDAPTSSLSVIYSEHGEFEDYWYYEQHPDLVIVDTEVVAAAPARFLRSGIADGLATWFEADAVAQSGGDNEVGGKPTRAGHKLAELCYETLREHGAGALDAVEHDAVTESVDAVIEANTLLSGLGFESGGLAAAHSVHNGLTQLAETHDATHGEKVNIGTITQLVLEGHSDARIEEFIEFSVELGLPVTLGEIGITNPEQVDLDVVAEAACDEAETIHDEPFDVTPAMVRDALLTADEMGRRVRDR

Hx-RbsK (ATP-R1PK) [3] = target: T1, Hx-RbsK (ATP-R1PK); experiment: PK/LDH-coupled NDP quantification; HPLC of product R15P; type: biochemical; conditions: 20 mM MgCl2, 2 M KCl, pH 8.3-8.4, 47 °C
[4] = substrate: O=CCO; experiment: HPLC of Ru1P formed (condensation direction); type: biochemical, Halopiger xanaduensis; conditions: 20 mM DHAP, 50 mM Tris-HCl pH 8.0, 2 M KCl, 1 mM ZnCl2, 47 °C
[5] = substrate: O=C(CO)COP(=O)(O)O; experiment: HPLC of Ru1P formed (condensation direction); type: biochemical, Halopiger xanaduensis; conditions: 50 mM glycolaldehyde, 50 mM Tris-HCl pH 8.0, 2 M KCl, 1 mM ZnCl2, 47 °C
purified protein [6] = substrate: O=P(O)(O)O; experiment: purified protein; conditions: 1 mM guanosine, 2 M KCl, 30 °C
purified protein [7] = substrate: Nc1nc2c(ncn2[C@@H]2O[C@H](CO)[C@@H](O)[C@H]2O)c(=O)[nH]1; experiment: purified protein; type: biochemical, Halorubrum lacusprofundi; conditions: 50 mM sodium phosphate pH 7.5, 2 M KCl, 30 °C
purified protein [8] = substrate: O=C(COP(=O)(O)O)[C@H](O)[C@H](O)COP(=O)(O)O; experiment: purified protein; type: biochemical, Halopiger xanaduensis; conditions: 50 mM Tris-HCl pH 7.5, 2 M KCl, 5 mM MgCl2
purified protein [9] = substrate: O=CCO; experiment: purified protein; type: biochemical, Halobacterium salinarum; conditions: 0.2 mM NADH, 50 mM MES-NaOH pH 6.0, 3 M KCl, 40 °C, fit with substrate inhibition

T1 sequence (F8D4I6 whole entry): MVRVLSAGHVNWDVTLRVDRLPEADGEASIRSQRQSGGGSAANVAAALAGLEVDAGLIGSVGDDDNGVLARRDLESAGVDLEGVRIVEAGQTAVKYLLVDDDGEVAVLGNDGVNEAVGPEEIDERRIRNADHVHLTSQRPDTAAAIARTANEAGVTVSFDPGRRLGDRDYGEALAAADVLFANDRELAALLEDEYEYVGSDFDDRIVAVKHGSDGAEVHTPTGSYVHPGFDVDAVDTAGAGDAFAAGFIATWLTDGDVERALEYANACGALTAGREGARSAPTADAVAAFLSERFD

Molecule: Nc1ncnc2c1ncn2[C@@H]1O[C@H](COP(=O)(O)OP(=O)(O)OP(=O)(O)O)[C@@H](O)[C@H]1O [ATP]
PK/LDH-coupled NDP quantification (Hx-RbsK (ATP-R1PK) [1]): Using R1P as the phosphate acceptor, the enzyme preferred ATP among NTPs

Ks2 [2]: 35 ± 8 mM
Molecule: O=CCO [glycolaldehyde]

Molecule: O=P(O)(O)O[C@H]1O[C@H](CO)[C@@H](O)[C@H]1O [R1P]
PK/LDH-coupled NDP quantification; HPLC of product R15P (Hx-RbsK (ATP-R1PK) [3]): HPLC analysis of the Hx-RbsK reaction product indicated that R15P was generated from R1P

B1: Hx-FucA (Ru1P aldolase) (Halopiger xanaduensis SH-6) (protein)
chain: MILETERRAVVEHASELADLTPGRTGNLSVRGSGDDTDAGPGDAFAITPTGVPYDGFDVEDVPVVGTDGERLDGEMAPSSEVPMHSAIYRREDVGAIVHTHSPWATALAVANQPLPPIHYMIVAVGKRVPVAEYAPYGTDELAENIVTAMTEAGSTASLIENHGLVVTAPDLETALENTHHVESLARLYLESRSAGLEPQTLTDDQLETVLEKFESYGQ
notes: recombinant from E. coli Rosetta (DE3), codon-optimised synthetic gene in pET-21a(+) NdeI/BamHI, purified on anion exchange, hydroxyapatite and gel filtration
Km [4]: 3.4 ± 0.3 mM
Km [5]: 3.5 ± 0.3 mM

B2: Hl-Urdpase1 (guanosine phosphorylase) (Halorubrum lacusprofundi ATCC 49239) (protein)
chain: MAKQPHLLVEEGDVHEIAIIPGDPGRVDRIADLCDDSELVAQNREYKIVNASYDGTDLTICSTGIGCPSAAIAVEELSRVGVETFLRCGTCGALQADMEVGDMVVATGAAKEEGTSKRYESVEYPAVPDYDALTELVGAAEDNDEEIHVGPIVSDDAFYNESDEYVDDWNDANLLAIEMEAATVFALARRKGLRAGAICTVDGNLVAGNQKGADSDDELPEKAKDNVERAIRITLNAVTAL
notes: recombinant from E. coli BL21-CodonPlus(DE3)-RIL, codon-optimised synthetic gene in pET-21a(+) NdeI/BamHI, purified on hydroxyapatite and gel filtration
Km (purified protein [6]): 4.8 ± 0.8 mM
Km (purified protein [7]): 0.056 ± 0.01 mM

B3: Hx-HAD hydrolase (RuBP phosphatase) (Halopiger xanaduensis SH-6) (protein)
chain: MATAVLFDLDNTLYPYPPCNQAGKAAALERAQELGYDFDHESFAEFYQAGRREVKRDTGGTAASHERYLYFKRALELHTGSPRPGDALALGDAYWSAYLEEMSLVPDAKETLEELQEQGVDIAITTNLTTTIQLAKLERLGLTDYVDLVLTSEETGQEKPASVMFTLPLARLDSRASEAVMVGDDLEADIAGANAVGLETVLFDPSEESDATESADRAATERQADHSIDTLGELTDLVS
notes: recombinant from E. coli Rosetta (DE3), codon-optimised synthetic gene in pET-21a(+) NdeI/BamHI, purified on hydroxyapatite and gel filtration
Km (purified protein [8]): 2.2 ± 0.5 mM

B4: glycolaldehyde reductase (GaR, VNG_6270G) (Halobacterium salinarum NRC-1) (protein)
chain: MTSVFKSPSTYVQGRNVTTDIGTHAESLGDTALLVADEIVMDMIESDVHESLAEAGLDGSSVVFNGESSEDEIERIASVAVDEGADIVIGAGGGKALDTAKAVREEVGGAMVSMPTIASMDAPTSSLSVIYSEHGEFEDYWYYEQHPDLVIVDTEVVAAAPARFLRSGIADGLATWFEADAVAQSGGDNEVGGKPTRAGHKLAELCYETLREHGAGALDAVEHDAVTESVDAVIEANTLLSGLGFESGGLAAAHSVHNGLTQLAETHDATHGEKVNIGTITQLVLEGHSDARIEEFIEFSVELGLPVTLGEIGITNPEQVDLDVVAEAACDEAETIHDEPFDVTPAMVRDALLTADEMGRRVRDR
notes: native protein purified from H. salinarum cell-free extract (hydroxyapatite, Superdex200), identified by LC-MS; plasmid-encoded; GenBank entry is the codon-optimised recombinant gene (Hs-GaR)
Km (purified protein [9]): 10 ± 2 mM
